In US6525022B1, “Receptor specific atrial natriuretic peptides” (Genentech, Inc., priority 1993, dated 2003):
One block for each molecule: values may come before it. Bridges are numbered along the chain shown (N, C = ends). Where no end group is shown, it is not given here.

Experiments:
[1] = molecular target: T1, human natriuretic peptide receptor-A expressed in 293 cells (Homo sapiens, UniProt P16066); assay: cGMP production in 293 cells expressing hNPR-A; format: cell-based
T1 construct: expressed in transfected cells
T1 sequence (P16066 33-1061): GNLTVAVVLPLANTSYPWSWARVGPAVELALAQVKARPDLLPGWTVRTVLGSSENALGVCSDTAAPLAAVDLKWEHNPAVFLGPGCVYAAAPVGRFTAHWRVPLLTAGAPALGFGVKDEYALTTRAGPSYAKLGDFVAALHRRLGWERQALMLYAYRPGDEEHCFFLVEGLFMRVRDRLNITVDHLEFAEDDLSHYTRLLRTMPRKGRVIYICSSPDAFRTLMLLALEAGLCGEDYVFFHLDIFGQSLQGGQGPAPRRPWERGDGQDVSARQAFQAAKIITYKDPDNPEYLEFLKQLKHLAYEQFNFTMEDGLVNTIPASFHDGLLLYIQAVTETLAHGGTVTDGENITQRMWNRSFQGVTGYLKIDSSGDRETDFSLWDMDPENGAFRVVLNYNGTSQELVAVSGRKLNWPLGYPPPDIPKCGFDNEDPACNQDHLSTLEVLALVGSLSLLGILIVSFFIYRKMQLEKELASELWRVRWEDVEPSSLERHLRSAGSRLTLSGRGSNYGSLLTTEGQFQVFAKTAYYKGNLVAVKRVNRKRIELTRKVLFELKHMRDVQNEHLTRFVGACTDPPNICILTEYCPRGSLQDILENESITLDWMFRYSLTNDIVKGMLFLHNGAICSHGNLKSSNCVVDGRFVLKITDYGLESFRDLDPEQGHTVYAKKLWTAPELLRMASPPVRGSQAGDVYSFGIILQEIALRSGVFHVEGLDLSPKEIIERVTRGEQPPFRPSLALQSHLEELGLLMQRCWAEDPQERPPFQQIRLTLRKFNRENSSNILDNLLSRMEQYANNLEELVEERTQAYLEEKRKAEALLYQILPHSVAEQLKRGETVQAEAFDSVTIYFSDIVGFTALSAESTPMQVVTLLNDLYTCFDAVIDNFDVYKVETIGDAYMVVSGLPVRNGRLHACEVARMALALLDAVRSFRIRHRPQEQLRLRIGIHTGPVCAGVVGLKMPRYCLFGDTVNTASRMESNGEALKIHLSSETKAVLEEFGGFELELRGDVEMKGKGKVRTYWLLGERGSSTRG
Protocol: Stable 293 cell lines were maintained in glycine free F-12/Dulbecco's minimal essential medium (50/50, v/v) with 10% dialyzed fetal calf serum, 10 mM Hepes, […] of G418 (Geneticin, GIBCO/BRL), pH 7.2, in a humidified incubator at 37° C. with 7% CO2, 93% air. Cells were passaged using 136.8 mM NaCL, 2.6 mM KCl, 7.9 mM Na2HPO4, 1.4 mM KH2PO4, pH 7.2 (PBS) with 0.5 mM EDTA. For concentration-response experiments log phase cultures of 293 cell lines were passaged to 12 well plates at a density of 2.5×10^5 cells/well. After 48 hours cultures were approximately 50% confluent, and were used for stimulation of cGMP production. Peptide treatments were carried out essentially as described by Lowe and Fendly (1992). Briefly, dried peptide aliquots were resuspended in 0.1% (v/v) acetic acid to a stock concentration of 50 μM, and diluted to 1 μM in F-12/Dulbecco's minimal essential medium (50/50, v/v) with 25 mM Hepes, 0.1% (w/v) bovine serum albumin, 0.1 mM isobutylmethylxanthine at pH 7.2 (stimulation medium). Five-fold serial dilutions were prepared in stimulation medium using polypropylene tubes, then prewarmed to 37° C. before use. Cell culture medium was aspirated prior to adding 0.5 ml of stimulation medium plus peptides to monolayer cultures for 10 minutes at 37° C. Reactions were stopped by addition of 0.5 ml of ice cold 12% trichloroacetic acid to give a final volume of 1 ml. Culture plates were frozen on dry ice and stored at −20° C. prior to assay. For cGMP measurements samples were thawed at room temperature, and processed as described by Koller et al., Science 252:120-123 (1991), for cGMP radioimmunoassay (Biomedical Technologies, Inc). All stimulations were performed in triplicate, and samples were measured in duplicate for cGMP by radioimmumoassay. Predicted peptide concentrations were corrected based on quantitative amino acid analysis of duplicate samples from the same set of peptide aliquots used for the stimulation experiments.
Data analysis. The competition binding curves and cGMP production dose responses were analyzed by the four-parameter logistic equation with the KaleidaGraph™ program (Synergy Software, PA) to obtain estimates of the IC50 or EC50 values. The non linear least-squares curve fitting program SCATPLOT was used to analyze the competition binding curves according to a one-site or two-site binding model for competitor. A two-site binding model is reported when the fit to the data was statistically better (p<0.05) than a one-site fit.

[2] = molecular target: T2, hNPR-C (Homo sapiens, UniProt P17342); assay: Competitive binding to membranes from cells expressing human NPR-C; parameters: expressed in transfected cells; conditions: FIG. 19, in comparison to rat ANP
T2 sequence (P17342 27-541): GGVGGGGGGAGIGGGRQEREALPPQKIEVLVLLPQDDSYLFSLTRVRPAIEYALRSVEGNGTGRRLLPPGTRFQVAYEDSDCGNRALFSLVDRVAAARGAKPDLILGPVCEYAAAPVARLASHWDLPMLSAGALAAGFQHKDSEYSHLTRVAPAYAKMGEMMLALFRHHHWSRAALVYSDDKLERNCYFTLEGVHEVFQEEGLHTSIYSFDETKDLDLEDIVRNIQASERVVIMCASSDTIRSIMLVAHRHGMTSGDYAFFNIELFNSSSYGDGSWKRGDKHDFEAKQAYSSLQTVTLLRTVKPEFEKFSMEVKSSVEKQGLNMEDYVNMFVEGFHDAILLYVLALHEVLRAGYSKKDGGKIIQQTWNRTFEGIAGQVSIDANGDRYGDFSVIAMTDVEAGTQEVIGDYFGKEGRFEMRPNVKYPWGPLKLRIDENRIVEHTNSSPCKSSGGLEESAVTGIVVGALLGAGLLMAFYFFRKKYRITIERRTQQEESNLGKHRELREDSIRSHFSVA
Protocol: Membrane preparation. Stable cell lines expressing human NPR-A (Lowe and Fendly, J. Biol. Chem. 267:21691-21697 (1992)) or human NPR-C (Cunningham et al., EMBO J 13, 2508-2515 (1994)) were removed from cell culture dishes with 0.5 mM EDTA in phosphate buffered saline (PBS), placed in ice cold PBS and centrifuged at 228 g for 10 min at 4° C. The cell pellets were resuspended in ice-cold homogenization buffer (50 mM HEPES, 1 mM EDTA, 1 mM DTT, 0.25 M sucrose, 0.7 mg/mL pepstatin A, 0.5 mg/mL leupeptin and 1 mM PMSF, pH 7.4). The cells were then homogenized using a Brinkman polytron at setting 5 for 30 sec. The homogenate was centrifuged at 400×g for 10 min at 4° C. The supernatant was collected and centrifuged at 100,000×g for 30 min at 4° C. […] Protein concentrations was determined using the Biorad protein assay with IgG as a standard.
Membrane competition binding assays. […] The plates were washed six times with PBS, then air dried prior to adding scintillant and counted in a Packard Topcount scintillation counter for 1 min/well. Binding was measured in duplicate for each concentration of competitor.
Data analysis. The competition binding curves and cGMP production dose responses were analyzed by the four-parameter logistic equation with the KaleidaGraph™ program (Synergy Software, PA) to obtain estimates of the IC50 or EC50 values. […]

[3] = molecular target: human neutral endopeptidase 24.11 (human) (UniProt P08473); assay: cell-based or functional assay
human neutral endopeptidase 24.11 (human), sequence (P08473 2-750 limits assumed): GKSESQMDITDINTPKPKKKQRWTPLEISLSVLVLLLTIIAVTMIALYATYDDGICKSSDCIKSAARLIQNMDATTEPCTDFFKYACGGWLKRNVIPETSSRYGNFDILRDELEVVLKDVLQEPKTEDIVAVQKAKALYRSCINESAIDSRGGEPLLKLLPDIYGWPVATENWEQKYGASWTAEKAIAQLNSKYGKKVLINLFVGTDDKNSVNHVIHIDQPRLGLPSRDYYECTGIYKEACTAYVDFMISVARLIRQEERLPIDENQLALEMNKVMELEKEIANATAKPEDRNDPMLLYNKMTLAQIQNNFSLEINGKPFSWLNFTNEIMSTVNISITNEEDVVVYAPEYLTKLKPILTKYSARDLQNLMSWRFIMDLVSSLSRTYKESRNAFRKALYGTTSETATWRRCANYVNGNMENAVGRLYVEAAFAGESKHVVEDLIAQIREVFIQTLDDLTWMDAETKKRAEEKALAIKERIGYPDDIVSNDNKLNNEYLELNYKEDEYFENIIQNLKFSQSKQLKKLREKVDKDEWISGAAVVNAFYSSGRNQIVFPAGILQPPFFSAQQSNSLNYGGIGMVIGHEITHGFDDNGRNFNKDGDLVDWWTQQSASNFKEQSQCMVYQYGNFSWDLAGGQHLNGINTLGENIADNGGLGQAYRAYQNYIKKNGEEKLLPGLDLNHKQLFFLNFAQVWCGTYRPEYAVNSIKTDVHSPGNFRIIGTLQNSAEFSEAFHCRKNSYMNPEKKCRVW

[4] = molecular target: T3, human natriuretic peptide clearance receptor-C (human) (UniProt P17342); assay: competition binding, Table I; tracer and receptor format not given
T3 sequence (looked up): T2 sequence (P17342 27-541)

[5] = molecular target: human natriuretic peptide receptor-A (human) (UniProt P16066); assay: as above
[6] = molecular target: human NEP (hNEP), endopeptidase 24.11 (Homo sapiens, UniProt P08473); assay: in vitro; conditions: Half-Life (min.)
human NEP (hNEP), endopeptidase 24.11, sequence (P08473 whole entry): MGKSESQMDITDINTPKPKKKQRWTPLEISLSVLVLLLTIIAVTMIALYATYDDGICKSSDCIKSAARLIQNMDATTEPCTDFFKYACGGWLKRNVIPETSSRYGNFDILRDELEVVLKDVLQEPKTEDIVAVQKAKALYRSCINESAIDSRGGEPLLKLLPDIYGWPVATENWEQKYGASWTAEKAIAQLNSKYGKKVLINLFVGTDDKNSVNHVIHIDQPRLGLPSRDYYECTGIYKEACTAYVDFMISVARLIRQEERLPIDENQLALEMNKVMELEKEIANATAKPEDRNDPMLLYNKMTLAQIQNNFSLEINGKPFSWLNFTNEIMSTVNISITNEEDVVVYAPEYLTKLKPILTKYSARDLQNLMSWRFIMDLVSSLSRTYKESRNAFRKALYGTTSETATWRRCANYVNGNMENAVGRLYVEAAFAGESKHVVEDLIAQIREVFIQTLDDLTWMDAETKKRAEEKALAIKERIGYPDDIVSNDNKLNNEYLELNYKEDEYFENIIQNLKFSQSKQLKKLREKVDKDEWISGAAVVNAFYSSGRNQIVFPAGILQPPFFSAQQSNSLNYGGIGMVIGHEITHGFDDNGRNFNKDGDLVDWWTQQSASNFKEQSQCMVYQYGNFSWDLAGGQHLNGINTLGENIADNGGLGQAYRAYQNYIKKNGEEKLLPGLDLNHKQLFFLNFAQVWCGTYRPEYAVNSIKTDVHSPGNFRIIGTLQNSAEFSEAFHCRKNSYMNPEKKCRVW
Protocol: The half-life of various ANF variants was measured according to the following procedure.
ANF Solution: An accurately weighed amount of ANF or variant thereof was diluted with HEPES buffer (5 ml of 1 M HEPES Buffer and 0.1 ml of Tween 20 diluted to a 100 ml volume with DI water) to make a 0.5 mg/ml solution.
hNEP/HEPES Solution: 7.5 μl of a 1 mg/ml solution of hNEP (see U.S. Pat. No. 4,960,700) is dissolved in 992.5 μl of HEPES buffer (as described above) and vortex mixed. The resulting mixture is stored in a silylated Eppendorf tube and periodically checked for activity against an ANF peptide standard.
Assay conditions: 150 μl of an ANF solution in the HEPES buffer is diluted with 820 μl HEPES buffer and vortex mixed (1 sec). Careful note of the time is taken as 30 μl of the hNEP/HEPES solution is added and the solution is vortex mixed for 1 sec. and analyzed by periodic removal of constant volume aliquots by the HPLC autosampler. A 2.5 cm×50 cm, C-18 reversed-phase column (15 micron, 300 Å]) was used and elution was achieved by using a shallow gradient of increasing acetonitrile. The elution conditions consisted of a 10% to 50% acetonitrile (containing 0.1% TFA) gradient at 0.5% min.^−1. The aqueous phase was 0.1% TFA in water. The peak area of the ANP peptide is recorded at these periodic intervals and a half-life is determined from these values.

[7] = molecular target: human neutral endopeptidase 24.11 (human, UniProt P08473 2-750, limits assumed); assay: cell-based or functional assay
human neutral endopeptidase 24.11, sequence (P08473 2-750 limits assumed): as the sequence (P08473 2-750 limits assumed) above

[8] = molecular target: T4, human natriuretic peptide receptor-A (human, UniProt P16066 33-1061); assay: competition binding, Table I; tracer and receptor format not given
T4 construct: whole, on cells; also called hNPR-A; human NPR-A
T4 sequence (looked up): T1 sequence (P16066 33-1061)

[9] = molecular target: T5, human natriuretic peptide clearance receptor-C (human, UniProt P17342 27-541); assay: as above
T5 construct: whole, on cells; also called hNPR-C; human NPR-C
T5 sequence (looked up): T2 sequence (P17342 27-541)

[10] = molecular target: T5, human natriuretic peptide clearance …; assay: analysis of variants in receptor binding

Molecule: Ser-Leu-Arg-Arg-Ser-Ser-Cys-Phe-Gly-Gly-Arg-Ile-Asp-Arg-Ile-Arg-Glu-Ala-Ser-Gly-Leu-Gly-Cys-Asn-Ser-Phe-Arg-Tyr (SEQ ID NO: 24), Cys^7-Cys^23 disulfide (SLRRSSCFGGRIDRIREASGLGCNSFRY; disulfide 7-23) [ANF 99]
Potency in cGMP production compared with rat ANP [1]: equipotent
Stimulation of cGMP production (agonist efficacy) [1]: efficacious
Binding to human NPR-C membranes, competition for 125I-rat ANP [2]: reduced affinity

Molecule: ANF 31 (peptide)
Half-Life [3]: 2.97 h
IC50 [4]: 3210 nM
IC50 [5]: 0.052 nM

half-life at 32 nM/ml [6]: 15.5 h
Molecule: CC[C@H](C)[C@@H]1NC(=O)[C@H](CCCNC(=N)N)NC(=O)[C@H](CC(=O)O)NC(=O)[C@H]([C@@H](C)CC)NC(=O)[C@H](CO)NC(=O)CNC(=O)[C@H]([C@@H](C)O)NC(=O)[C@H](Cc2ccccc2)N(C)C(=O)[C@@H](NC(=O)[C@H](CO)NC(=O)[C@H](CO)NC(=O)[C@H](CCCNC(=N)N)NC(=O)[C@H](CCCNC(=N)N)NC(=O)[C@H](CC(C)C)NC(=O)[C@@H](N)CO)CSSC[C@@H](C(=O)N[C@@H](CC(N)=O)C(=O)N[C@@H](CO)C(=O)N[C@@H](Cc2ccccc2)C(=O)N[C@@H](CCCNC(=N)N)C(=O)N[C@@H](Cc2ccc(O)cc2)C(=O)O)NC(=O)CNC(=O)[C@H](CC(C)C)NC(=O)CNC(=O)[C@H](CO)NC(=O)[C@H](CCC(N)=O)NC(=O)[C@H](C)NC(=O)[C@H](CCCNC(=N)N)NC1=O [ANF 83]

half-life at 32 nM/ml [6]: 6.08 h
Molecule: CC[C@H](C)[C@@H]1NC(=O)[C@H](CCCNC(=N)N)NC(=O)[C@H](CC(=O)O)NC(=O)[C@H]([C@@H](C)CC)NC(=O)[C@H](CO)NC(=O)CNC(=O)[C@H]([C@@H](C)O)NC(=O)[C@H](Cc2ccccc2)NC(=O)[C@@H](N(C)C(=O)[C@H](CO)NC(=O)[C@H](CO)NC(=O)[C@H](CCCNC(=N)N)NC(=O)[C@H](CCCNC(=N)N)NC(=O)[C@H](CC(C)C)NC(=O)[C@@H](N)CO)CSSC[C@@H](C(=O)N[C@@H](CC(N)=O)C(=O)N[C@@H](CO)C(=O)N[C@@H](Cc2ccccc2)C(=O)N[C@@H](CCCNC(=N)N)C(=O)N[C@@H](Cc2ccc(O)cc2)C(=O)O)NC(=O)CNC(=O)[C@H](CC(C)C)NC(=O)CNC(=O)[C@H](CO)NC(=O)[C@H](CCC(N)=O)NC(=O)[C@H](C)NC(=O)[C@H](CCCNC(=N)N)NC1=O [ANF 82]

Half-life at 0.075 µg/ml NEP [7]: 32.1 h
Half-life at 0.15 µg/ml NEP [7]: 4.48 h
IC50 [8]: 4.55 nM
IC50 [9]: 32.2 nM
B1: ANF 51 (peptide)
peptide: SLRRSSCFERPMDRIGAQSGLGCNSFRY
modifications: disulfide 7-23
notes: Cys7-Cys23 disulfide; also called hANF(1-28) G9E, G10R, R11P

fold reduction of affinity against wild type [10]: ~150 fold
Molecule: SLRRSSCFGGRMDRIRAQSGLGCNSFRY (disulfide 7-23 (inferred), also called hANF G16R) [hANF(1-28) G16R]
